Results reported in US20230365705A1 (DYNAMICURE BIOTECHNOLOGY, published 2023).
Values belong to the binder of their own block, whether it stands above or below them.

Key:
[1] = biological target: T1, Human CD93 recombinant protein (Sino Biological Inc, Catalog #12589-H08H) (human, UniProt Q9NPY3 22-580); experiment: ELISA, hCD93-His coated, OD450; unit printed as pmM
T1 construct: Biotinylated (EZ-LINK NHS-PEG4 biotin) in the BLI assays; also called hCD93; His-tagged human CD93
T1 sequence (looked up): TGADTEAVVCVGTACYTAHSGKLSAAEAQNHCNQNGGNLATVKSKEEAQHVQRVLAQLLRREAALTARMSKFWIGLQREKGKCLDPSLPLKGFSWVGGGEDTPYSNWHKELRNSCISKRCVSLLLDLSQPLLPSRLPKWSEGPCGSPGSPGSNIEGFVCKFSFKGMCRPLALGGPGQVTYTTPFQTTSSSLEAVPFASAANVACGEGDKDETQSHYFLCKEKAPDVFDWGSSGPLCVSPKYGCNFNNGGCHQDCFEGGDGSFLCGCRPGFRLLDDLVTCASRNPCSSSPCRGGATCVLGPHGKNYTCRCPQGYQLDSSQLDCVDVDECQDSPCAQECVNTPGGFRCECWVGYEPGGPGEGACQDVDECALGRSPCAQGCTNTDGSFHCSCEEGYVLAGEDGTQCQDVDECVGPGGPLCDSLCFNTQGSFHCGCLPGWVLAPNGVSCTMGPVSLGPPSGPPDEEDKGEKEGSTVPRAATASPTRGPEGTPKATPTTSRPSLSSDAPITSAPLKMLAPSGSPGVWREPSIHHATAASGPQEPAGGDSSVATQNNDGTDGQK
Method: His-tagged human CD93 was coated onto a 96 well plate at 1 μg/mL in 1×PBS overnight at 4° C. The plate was washed with ELISA wash buffer (Boston BioProduct, Inc.) and the wells were blocked with ELISA blocking buffer for 1 hour at 37° C. Purified antibodies were serially diluted in ELISA blocking buffer (Boston BioProduct, Inc.) and incubated on the receptor for 1 hour at 37° C. The plate was washed with ELISA wash Buffer. […] The plate was washed with ELISA wash buffer. HRP substrate was added for indirect detection of the antibodies binding to CD93.

[2] = biological target: T2, Human CD93 on cells (human CD93 expressing CHO cells; HUVEC, U937 and KG1a cells) (human, UniProt Q9NPY3 22-652); experiment: flow cytometry blocking assay, CHO-hCD93 cells, antibody 50 ug/ml then MMRN2 0.1 ug/ml, APC-A
T2 construct: whole, on cells; also called hCD93 expressing CHO cells; hCD93 CHO cells
T2 sequence (looked up): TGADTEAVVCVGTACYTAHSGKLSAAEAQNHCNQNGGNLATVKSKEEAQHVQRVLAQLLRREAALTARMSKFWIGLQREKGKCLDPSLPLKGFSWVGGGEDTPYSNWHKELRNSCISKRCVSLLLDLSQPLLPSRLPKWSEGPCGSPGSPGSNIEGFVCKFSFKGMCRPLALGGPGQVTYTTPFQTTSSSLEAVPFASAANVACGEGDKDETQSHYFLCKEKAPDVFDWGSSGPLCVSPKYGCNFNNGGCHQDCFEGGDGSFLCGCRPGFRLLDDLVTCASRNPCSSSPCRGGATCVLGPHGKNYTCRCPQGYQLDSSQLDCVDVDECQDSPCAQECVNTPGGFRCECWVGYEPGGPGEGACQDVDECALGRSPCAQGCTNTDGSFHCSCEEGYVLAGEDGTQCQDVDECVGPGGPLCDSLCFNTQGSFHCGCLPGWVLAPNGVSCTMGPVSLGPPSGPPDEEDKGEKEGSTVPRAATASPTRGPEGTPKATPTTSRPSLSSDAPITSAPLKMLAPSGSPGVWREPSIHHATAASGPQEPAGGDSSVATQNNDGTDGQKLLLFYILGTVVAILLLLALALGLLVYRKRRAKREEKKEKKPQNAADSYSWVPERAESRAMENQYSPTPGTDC
Method: After incubation, the cells were washed with FACS buffer and incubated with anti-His conjugated APC or streptavidin conjugated APC at a ratio of 1:500 for 30 minutes at 4° C. After washing with FACS buffer twice, the samples were analyzed and data acquired in NovoCyte Flow.

[3] = biological target: T2, Human CD93 on cells (human CD93 …); experiment: flow cytometry titration, CHO-hCD93 cells; antibody stored 4 weeks at 40 C
Method: Human CD93 expressing CHO cells were detached by incubation with TrypLE reagents (Thermo Fisher), which preserves the integrity of CD93 on the cell surface. Then the cells were incubated with serial diluted anti-CD93 antibodies for 30 minutes at 4° C. After washing by FACS buffer, the cells were incubated with Alexa Fluor 647 conjugated anti-human IgG (Jackson ImmunoResearch) for 30 minutes in 4° C. After washing by FACS buffer twice, the samples were acquired in NovoCyte Flow Cytometer and analyzed by NovoExpress software.

[4] = biological target: T2, Human CD93 on cells (human CD93 …); experiment: flow cytometry blocking assay, CHO-hCD93 cells; blocked ligand hMMRN2 495-674 at 0.1 ug/ml; antibody stored 4 weeks at 40 C
Method: Then the cells were incubated with hMMRN2₄₉₅₋₆₇₄ at 0.1 μg/ml. […] After washing with FACS buffer twice, the samples were analyzed, and data acquired in NovoCyte Flow. Recombinant his tagged hMMRN2₄₉₅₋₆₇₄ was produced internally in E. Coli following routine procedure.

EC50 [1]: 0.112 nM | M3 gate, % of cells positive for MMRN2 after the antibody [2]: 37.7%
B1: 16E4 (hybridoma) (antibody, IgG2a, V domains shown)
VH: QVQLQQPGAELVKPGASVKLSCKASGYTFTSYWMHWVKQRPGQGLEWIGEIDPSASYTYYNQKFKGKATLTVDKSSSTAYMQLSSLTSEDSAVYYCARSVYYGNKYFDVWGAGTTVTVSS
VL: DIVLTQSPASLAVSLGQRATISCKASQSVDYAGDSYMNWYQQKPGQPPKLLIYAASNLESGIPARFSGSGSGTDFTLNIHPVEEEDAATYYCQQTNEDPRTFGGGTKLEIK
notes: also called 16E4 mAb; 16E4 mIgG2a

EC50 [3]: 0.312 nM
B2: h16E4 (humanized 16E4, VH4+VL6) (antibody, V domains shown)
VH: QVQLVQSGAEVKKPGASVKVSCKASGYTFTSYWMHWVRQAPGQGLEWMGEIDPSASYTYYNQKFKGRVTMTRDKSSSTVYMELSSLTSEDSAVYYCARSVYYGNKYFDVWGAGTTVTVSS
VL: DIQMTQSPSTLSASVGDRVTITCKASQSVDYAGDSYMNWYQQKPGKAPKLLIYAASNLESGVPSRFSGSGSGTEFTLTISSLQPDDFATYYCQQTNEDPRTFGGGTKLEIK
notes: Detected with anti-human IgG, so a human Fc

IC50 [4]: 0.153 nM
B3: h7F3 (humanized 7F3, VH3+VL3) (antibody, human IgG1, V domains shown)
VH: QVQLVQSGAEVKKPGASVKVSCKASGYTFTDYEMHWVRQAPGQGLEWMGGIDPETGDTAYNQNFKGRVTMTTDTSTSTAYMELRSLTSDDTAVYYCTNYGNLYYYAMDYWGQGTSVTVSS
VL: EIVLTQSPSSLSASVGDRVTITCRASSSVSSSYLHWYQQKPGKAPKLLIYSTSNLAFGVPSRFSGSGSGTSYTFTISSLQPEDIATYYCQQYSGYPLTFGSGTKLEIK
notes: also called humanized 7F3-hIgG1
